Test results from US20170275375A1 (published 2017).

Legend:
[1] = target: T1, human PD1 expressed on cells (activated Jurkat T cells; SpESFX-2D1 transfectants) (human, UniProt Q15116 25-288); assay: binding to 2D1 cells transfected with human PD1
T1 construct: whole, on cells; Endogenous on stimulated Jurkat cells; transfected human PD1 on SpESFX-2D1; also called CD279; 2D1 cells

[2] = target: T2, recombinant human PD1-His (human, UniProt Q15116 25-167, limits assumed); assay: in vitro binding to recombinant human PD1-His (FIG. 32)
T2 construct: also called recombinant PD1-His; not shown: His tag
T2 sequence (Q15116 25-167 limits assumed): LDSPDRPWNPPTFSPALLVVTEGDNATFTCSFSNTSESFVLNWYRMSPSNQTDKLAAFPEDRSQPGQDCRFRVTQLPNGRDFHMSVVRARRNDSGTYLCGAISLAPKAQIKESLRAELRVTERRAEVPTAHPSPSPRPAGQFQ

T1 sequence (Q15116 25-288): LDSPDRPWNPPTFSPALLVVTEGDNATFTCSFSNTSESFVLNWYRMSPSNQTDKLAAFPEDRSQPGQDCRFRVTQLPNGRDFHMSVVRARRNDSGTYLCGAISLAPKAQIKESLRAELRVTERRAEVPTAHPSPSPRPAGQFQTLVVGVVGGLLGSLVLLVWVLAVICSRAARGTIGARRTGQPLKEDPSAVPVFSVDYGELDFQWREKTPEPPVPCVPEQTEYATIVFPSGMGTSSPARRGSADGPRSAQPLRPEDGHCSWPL

B1: humanized anti-PD1 antibody version 5 (V5) (antibody, V domains shown)
VH: QVQLVESGGGLVKPGGSLRLSCAASGFAFSSNDMSWVRQAPGKGLEWVATISGGGINTYYPDSVKGRFTISRDNAKNTLYLQMNSLRAEDTAVYYCARRSNYAWFAYWGQGTPVTVSA
VL: DIQLTQSPASLAVSLGQRATISCRASESVDTYGISFMNWFQQKPGQPPKLLISPNQGSGVPARFSGSGSGTDFTLTINSLEAEDTAVYFCQQSKEVPWTFGGGTKLEIK
notes: V5 is V4 with a putative light-chain N-glycosylation site removed; also called hPD1 v5; hPD1 (v5)
EC50 [1]: 0.568 µg/mL

B2: 2G9 (IMMU-cPD1) (antibody, V domains shown)
VH: VKLQESGGGLVKPGGSLKLSCAASGFAFSSNDMSWVRQTPEKRLEWVATISGGGINTYYPDSVKGRFTISRDNARNTLDLQMSSLRSEDTALYYCARRSNYAWFAYWGQGTPVTVSA
VL: not shown
notes: also called chimeric anti-PD1; chimeric version of 5G9
EC50 [1]: 0.168 µg/mL
EC50 [2]: 0.072 nM
